The supplement of paper PMC12042874
± gives the uncertainty stated by the source.

experiment: amyloid nucleation score (Sup35N fusion, yeast selection) (log enrichment); library NNK1; higher = more nucleation; inactive = no reads after selection
Method in brief: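 Peptides of 20 random codons, each fused to Sup35N, were expressed in psi-negative yeast. Cells were induced with 100 μM copper sulfate for 24 hours and grown 7 days at 30°C on medium lacking adenine and uracil, and plasmid inserts before and after selection were Illumina-sequenced. Nucleation scores are DiMSum log enrichments of output over input reads, centred on the mode score of non-aggregating sequences, and sequences under 100 input reads were excluded.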

Row | Substance | amyloid nucleation score
1 | ARGYPLTYKYQVSRGSRLTL | 0.439 ± 0.4
2 | HVFSQ | -0.756 ± 2.4
3 | FFVSIELITTRLLISQHNSY | -0.689 ± 0.89
4 | SRLRCMEH | 2.51 ± 0.15
5 | WSGFQCSQDEWNLSMTIVRA | -0.097 ± 0.78
6 | TAVDLWYGGVGGLALNGVVS | 0.594 ± 0.62
7 | SLSMSRIQMHNRYKPGTQFD | 1.07 ± 0.46
8 | YDILNGQAHDCYETMVKGWG | -0.372 ± 0.47
9 | DLLFMLRGAWAKSFMMGSVG | 0.059 ± 0.43
10 | GFISIGP | -0.068 ± 0.29
11 | NKSNSLYGSLKWGDRAYSSY | -1.31 ± 0.71
12 | RMSNDITNFSFTIVTM | 3.86 ± 0.08
13 | CKSESRFLFAYNSLCLKSMG | -0.043 ± 0.3
14 | VPFSGSDNGGTYDCLDWNEG | -0.299 ± 0.63
15 | AWNCHKFND | 0.668 ± 0.78
16 | NMLSLSRAAWKRN | inactive
17 | KNFYDIKPLYALYSENLRLH | 0 ± 0.46
18 | GVLEVIYVSLFRGRAESVFR | 1.67 ± 0.34
19 | YLEVPMKFFEFFGFRPVAFV | -0.121 ± 0.54
20 | YQDFAGDARFGEIRWYYPKS | 0.125 ± 0.41
21 | KWYGILNVVDDRRSIGRYDM | -0.281 ± 0.58
22 | ASRSCIVSRRASGPHVCCQV | 0.098 ± 0.91

Row | Substance | amyloid nucleation score
23 | LLMPDSNG | -0.699 ± 0.3
24 | IQGNFRDLGRDKHDTEVWHP | 0.858 ± 0.45
25 | VNVTCMFWD | 4.05 ± 0.058
26 | FNVGLPLAGIISTKTD | -1.83 ± 2.7
27 | GIWCFACMSKFMYTRFSYN | -1.02 ± 0.67
28 | TLFLVWILGVTKSRITGTPS | 0.325 ± 0.73
29 | CMGPYFSGMSEFRGTLSVHA | -0.491 ± 1.9
30 | NTCLH | 1.63 ± 0.43
31 | ILPCFDANIIQDP | -0.064 ± 0.81
32 | LIGQLIFRPVNGARKIPV | -0.31 ± 0.29
33 | RIIYGCCAVRFARSMAKHPM | -0.716 ± 0.38
34 | IAMSIKWRRW | 2.8 ± 0.093
35 | TKSMFGTCNMFKTKVLN | -0.101 ± 0.49
36 | AKPMNKTEYFSAYLQLHMGI | 3.1 ± 0.12
37 | PPGIRAYM | -0.036 ± 0.35
38 | SWRLMIRYVDTPNSWNFSTM | -0.183 ± 0.67
39 | SVGSLRRFSDFIYWNVVLNM | -0.3 ± 0.58
40 | VCKMSTLVDDWRGSARPHRL | 0.782 ± 0.37
41 | MERYCN | -0.148 ± 0.23
42 | AWGRLAGYRRGSWMYYCCNS | 0.435 ± 0.82
43 | SNLHNCLRGNGCWVIAIDVV | -0.251 ± 0.81
44 | MFRNI | 0.227 ± 0.26

Row | Substance | amyloid nucleation score
45 | SGCGPNGIRFWVRLEVGNTT | 0.016 ± 0.33
46 | LVTGSCNQWHGKW | -0.062 ± 0.39
47 | YGSAVVRQCFG | -0.114 ± 0.35
48 | DCPFKLPFSTRRR | 0.05 ± 0.73
49 | FLWSIICSYSQLY | -0.201 ± 0.35
50 | ERENAYPSIMLVCV | -0.092 ± 0.32
51 | SSESICFNIRGQDINRT | -0.446 ± 0.37
52 | RFNISIPD | -1.01 ± 0.5
53 | GLLLSCSWNIDVSA | 0.235 ± 0.56
54 | IISDDNSGMWWVMFLV | 0.065 ± 0.61
55 | GPISLWSPLRSVN | 0.444 ± 0.84
56 | RWSIELCVRM | -0.367 ± 0.51
57 | LCSFKFSVRPLCKKRFKVRV | 0.099 ± 0.34
58 | SAVSMVR | -0.594 ± 0.55
59 | ILMHSIAVFTRGIGRIRLAS | 0.913 ± 0.68
60 | TICNEINQFKAK | 0.35 ± 0.59
61 | DSRFHSLGVLAHMPRDCNCG | 0.853 ± 0.86
62 | SRGTGRARDAAA | -0.488 ± 1.1
63 | VSSVGVDMMYLTTRGGCHSI | inactive
64 | WDVIYVFFIHIYQSVGS | -0.48 ± 0.85
65 | TLLRLFEKPLICYVIGRSLI | -1.09 ± 0.61
